# From the nanobody polyreactivity screen of Harvey et al. (2022)
# Assay: yeast display, Sf9 membrane polyspecificity reagent, FACS + sequencing; frameworks hold sequencing errors
# Procedure, shortened: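 Galactose-induced (36–48 hours) yeast carrying a synthetic nanobody display library were exposed to 10% biotinylated, detergent-solubilized Sf9 membrane reagent at 4 °C for 1 hour. FACS followed streptavidin microbead enrichment, using low and high (top ~1%) gates for expression (anti-HA) and reagent binding (streptavidin). Colony PCR, MiSeq 2 × 250 sequencing and CDR-length filtering followed. Labels for polyreactivity reflect the gate of origin.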
row,Sequence,polyreactivity (PSR sort gate)
1,QVQLVESGGGLVQAGGSLRLSCAASGFTFRANGMGWYRQAPGKERELVATITSGGTTNYADSVKGRFTISRDNAKNTVYLQMNSLKPEDTAVYYCAKRFGPAYFRLYDYWGQGTQVTVSS,low polyreactivity
2,QVQLVESGGGLVQAGGSLRLSCAASGFTFRAYAMGWYRPAPAKERELVAAISTGGGSTYYADSVKGRFTISRDIAKHTVYLQLNSLKPEDTAVYYCNALPQRRYYYWGQGTQVTVSS,high polyreactivity
3,QVQLVESGGGLVQAGGSLRLSCAASGFTFRAYAMGWYRQAPGKERELVAAISTGGGSTYYADSVKGRFTISRDNEKNTVYLQMNSLKPEDTAVYYCNALPQRRYYYWGQGTQVTVSS,high polyreactivity
4,QVQLVESGGGLVQAGGSLRLSCAASGFTFRAYTMGWYRQAPGKERELVAAITYSGGRTYYADSVKGRFTISRDNAKNTVYLQMNSLKPEDTAVYYCAKRGWALSEYYYWGQGTQVTVSS,high polyreactivity
5,QVQLVESGGGLVQAGGSLRLSCAASGFTFRENAMGWSRQAPGKERELVAAISSSGGSTYYADSVKGRFTISRDNAKNTVYLQMNSLKPEDTAVYYCAADATLSFDYWGQGTQVTVSS,high polyreactivity
6,QVQLVESGGGLVQAGGSLRLSCAASGFTFRFYAMGWYRQAPGKERELVAVITSRGTRTYYADSVKGRFTISRDNAKNTVYLQMNSLKPEDTAVYFCAKDFAFNGGISKYDYWGQGTQVTVSS,high polyreactivity
7,QVQLVESGGGLVQAGGSLRLSCAASGFTFRFYGMGWYRQAPGKERELVAAISSRGTTTYYADSVKGRFTISRDNAKNTVYLQMNSLKPEDTAVYYCNKEYTTYGYDLEYDYWGLGTQVTVSS,low polyreactivity
8,QVQLVESGGGLVQAGGSLRLSCAASGFTFRGNAMGWYRQAPGKERELVAAITSSDDSTYYADSVKGRFTISRDNAKNTVYLQMNSLKPEDTAVYYCAVYFFSFWGQGTQVTVSS,low polyreactivity
9,QVQLVESGGGLVQAGGSLRLSCAASGFTFRGYAMGWYRQAPGKERELVASISYRGDSTYYADSVKGRFTISRDNAKNTVYLQMNSLKPADTAGYYCNKLLASYYLPGFDYWGQGTQVTVSS,low polyreactivity
10,QVQLVESGGGLVQAGGSLRLSCAASGFTFRGYAMGWYRQAPGKERELVAVISSGGSTNYADSVKGRFTISRDNAKNTVYLQMNSLKPEDTAVYYCNAGYWFRYYGGDYYLGGLNYYWGQGTQVTVSS,low polyreactivity
11,QVQLVESGGGLVQAGGSLRLSCAASGFTFRGYDMGWYRQAPGKERELVATISSGGRTYYADSVKGRFTISRDNAKNTVYLQMNSLKPEDTAVYYCAAPRFGRLAFDFWGQGSQVTVSS,low polyreactivity
12,QVQLVESGGGLVQAGGSLRLSCAASGFTFRGYTMGWYRQAPGKERELVAAITRSGTTTYYADSVKGRFTISRDNAKNTVYLQMNSLKPEDTAVYYCATAKFYRQYGYWGQGTQVTVSS,high polyreactivity
13,QVQLVESGGGLVQAGGSLRLSCAASGFTFRHNTMGWYRQAPGKERELVAAISIGGRTYYADSVKGRFTISRDNAKNTVYLQMNSLKPEDTAVYYCAKLSRGQSPGYDYWGQGTQVTVSS,high polyreactivity
14,QVQLVESGGGLVQAGGSLRLSCAASGFTFRHYAMGWYRQAPGKERELVARIRGGGVSTYYADSVKGRFTISRDNAKNTVYLQMNSLKPEDTAVYYCNAVYESWWGDYDYWGQGTQVTVSS,high polyreactivity
15,QVQLVESGGGLVQAGGSLRLSCAASGFTFRIYAMGWYRQAPGKERELVAAISWAGGSTFYADSVKGRFTISRDNAKNTVYLQMNSLKPEDTAVYYCAADTAFHYDYWGQGTQVTVSS,low polyreactivity
16,QVQLVESGGGLVQAGGSLRLSCAASGFTFRLNAMGWYRQAPGKEREMVAAISSSGGRTYYADSVKGRFTISRDNAKNTVYLQLNSLKPEDTAVYYCAADYTTRYLDGVVARGYYWGQGTQVTVSS,high polyreactivity

row,Sequence,polyreactivity (PSR sort gate)
1,QVQLVESGGGLVQAGGSLRLSCAASGFTFRLYAMGWYRQAPGKERELVATITRRGGITTYADSVKGRFTISRDNAKNTVYLQMNSLKPEDTAVYYCNAGKYVYATSQYDYWGQGTQVTVSS,high polyreactivity
2,QVQLVESGGGLVQAGGSLRLSCAASGFTFRLYTMGWYRQAPGKERELVAAITYSGDSTYYADSVKGRFTISRDYAKNTVYLQMNSLKPEDTAVYYCAARKYYARYYWGQGSQVTVSS,high polyreactivity
3,QVQLVESGGGLVQAGGSLRLSCAASGFTFRNYAMGGYRQAPGKERELVAAISKSGGSTYYADSVKGRFTISRDNAKNTVYLQMNSLNPEDTAVYYCATDYLYVYGFEYYYWGQGTQVTVSS,high polyreactivity
4,QVQLVESGGGLVQAGGSLRLSCAASGFTFRQYAMGWYRQAPGKEREFFADITFSGDNTRYADSVKGRFTISRDNAKNTVYLQMNSLKPEDTGVYYCNADYLVSWLQFDYWGQGTQVTVSS,low polyreactivity
5,QVQLVESGGGLVQAGGSLRLSCAASGFTFRRNAMGWYIQAPGKERELVAAINVRDGSTYYADSVKGRFTISRDNAKNTVYLQMNSLKPEDTAVYYCAAEFFQGYYWYYYWGQGTQVTVSS,high polyreactivity
6,QVQLVESGGGLVQAGGSLRLSCAASGFTFRRNAMGWYRKAPGKERELVAAISSSGGSTNYADSVKGRFTISRDNAKNTVYLQMNSLKPEDTAVYYCNRGSRRLGSIVWYDYWGQGTQVTVSS,high polyreactivity
7,QVQLVESGGGLVQAGGSLRLSCAASGFTFRRNAMGWYRQAPGKERELVAAISRGGSSTYYADSVKGRFTISRDNAKNTVYLQMNSLKPEDTAVYYCGARIPNQQGYGYWGQVTQVTVSS,high polyreactivity
8,QVQLVESGGGLVQAGGSLRLSCAASGFTFRRYAMGWYRQAPGKEREFVAAITTRGSNTYYADSVKGRFTISRDNAKNTVYLQMNSLKPEDTAVYYCAASYYPPGHYDYWGQGTQVTVSS,high polyreactivity
9,QVQLVESGGGLVQAGGSLRLSCAASGFTFRRYAMGWYRQAPGKERELVAAISTSGGRTYYADSVKGRFTISRDNAKNTVYLQMNSLKPEDTAVYYCAARIPKQRDVRGSGMNYWGQGTQVTVSS,high polyreactivity
10,QVQLVESGGGLVQAGGSLRLSCAASGFTFRRYAMGWYRQAPGKERELVAAITRGGSTYYADSVKGRFTISRDNAKNTVYLQMNSLKPEDTAVYYCAARGGTRYSTRSYGYWGQGTQVTVSS,high polyreactivity
11,QVQLVESGGGLVQAGGSLRLSCAASGFTFRRYAMGWYRQAPGKERELVAGITGRGGSTYYADSVKGRFTISRDNAKNTVYLQMNSLKPEDTAVYYCNKPRAARGYLTGQLDYWGQGTQVTVSS,high polyreactivity
12,QVQLVESGGGLVQAGGSLRLSCAASGFTFRRYAMGWYRQAPGKERELVASIASSTGGSTYADSVKGRFTISRDNAKNTVYLQMNSLKPEDTAVYSCAADWSRFYLGHRTGSGYEYWGQGTQVTVSS,low polyreactivity
13,QVQLVESGGGLVQAGGSLRLSCAASGFTFRSNAMGWYRQAPGKARELVAAISYSGDSTYYADSVKGRFTISRDTAKNTVYLQMNSLKPEDTAVYYCAADGYDQWGRVGVYLIWTSYDYWGQGTQVTVSS,high polyreactivity
14,QVQLVESGGGLVQAGGSLRLSCAASGFTFRSNAMGWYRQAPGKVRELVAAISYSGDSTYYADSVKGRFTISRDNAMNTVYLQMNSLKPEDTAVYYCNAVGSGYRSWYDYWGQGTQVTVSS,high polyreactivity
15,QVQLVESGGGLVQAGGSLRLSCAASGFTFRTYAMGWYRQAPGKERELVAAISKSGGSTYYADSVKGRFTISRDNAKNTVYLQMNSLTPEDTAVYYCNAGEASWFSLHYYWGQGTQVTVSS,high polyreactivity
16,QVQLVESGGGLVQAGGSLRLSCAASGFTFRVNAMGWYRQAPGKERELVAAISSGGGITYYADSVKGRYTISRDNAKNTVYLQMNSLKPEDTAVYYCAARENRYLERDYWGQGTQVNVSS,low polyreactivity
